In the test the target is recombinant Plasmodium knowlesi lactate dehydrogenase (Plasmodium knowlesi). Kind of test: native gel or EMSA; PAGE under native (non-reducing) conditions, 2 ug purified PkLDH in native sample buffer without SDS, 10% polyacrylamide gel without SDS, Coomassie Brilliant Blue R-250; single band between 135 and 180 kDa (monomer ~35.0 kDa on SDS-PAGE).

Stoichiometry N data for one substance are collected here from article PMC11171812.

By stoichiometry N is commonly meant a count of units in the complex or per binding partner. On to “recombinant Plasmodium knowlesi lactate dehydrogenase (enzyme)”, for which the stoichiometry N worked out at 4.
